Data: paper PMC6104087, “Structural basis for membrane tethering by a bacterial dynamin-like pair” (Nature Communications, 2018)

B2: Cj-DLP1 (natural protein, Campylobacter jejuni, UniProt A0A0H3PJL7 1-728, looked up)
chain: MKELFQKIWQNELQFLNFDAKFQDKSKLDTAECAIILSVNKDNYERYFLLKEFQELCKKIDLRVDIFSMQNAQICILNLFKSGFISKQDLLKALKILEKISKNTEIFDFILQEKVQSIDQKALFQNDFKELNTINLELQKLSFDENLKSRLQKTLEKFQNLEFNIAITGVMNAGKSSLLNALLKEDFLGVSNIPETANLTVLSYGKSEEAKIYFWDKKEWQNILESSHFNADLKEFIDKLDKSVNIEDFIKDKPLIQNIALCELKNFSSAKNKISALIKKIEIKSHLEFLKNNISIVDTPGLDDVVVQREIVTNEYLRESDFLIHLMNASQSLTQKDADFLVHCLLNSRLSKFLIVLTKADLLSKKDLEEVIVYTKESLKSRLVDLDENLVEKIDFLCVSAKMASDFYKGLASKESLQKSGMQEFENYLFNELYAGEKSKIALRAYKKELHLELKNILSEYEMQNRLIKENKQGVSEENQKLLLELQKQNTLLKEAQDEISNSIAKLKNIDSGIDNLVLLLAKKLKERLIDEFKYLKNNAQKLNLSRILNIVDITTKDGINDILREIKFENIKKIEELKTNLSLKYDFLKDDFDNGFEGFKDGISKNIDSIFQSEKFALLRLKIEKLSNLKSDLYELETNLDTVIFDTFKEFKMSEILNSLNINGAFFEFLNDKLKHYEKNQKSKLESLEKVLQSLKNQDANILNSFEENLEKIEKLKQLEMGLLNAD
notes: Cj-DLP1, dynamin-like protein of Campylobacter jejuni, gene cj0411, full-length protein, 84.5 kDa; Monomer alone; Two copies stand in the 2:2 tetramer with Cj-DLP2; also called cj0411; CJ0411; source: E. coli BL21 (DE3), purified (HisTrap, gel filtration)
B3: Cj-DLP2 (natural protein, Campylobacter jejuni)
chain: MQINLLNDFIKAYENTYSVSFDDSFKGRIQELCKELNEPFMHASYALENELKELVFSLDKNVNIAIIGQFSSGKSSLLNLILGRDCLPTGVVPVTFKPTFLRYAKEYFLRVEFEDGSDIITNIEKLAFYTDQRNEVKQAKSLHIFAPIPLLEKITLVDTPGLNANENDTLTTLDELKNIHGAIWLSLIDNAGKKSEEDAIKANLELLGENSICVLNQKDKLSAEELDNVLNYAKSVFLKYFNELIAISCKEAKDEQSYEKSNFQSLLDFLTQLDTTVLKEKFVKRKILNLCEILEDENQLFVGIFDRLLNQFQSYEKHLLLAYENFLKEIEILNHQILEQLKSISERISSEIFASVKEKDAYFYKESKGFLKKDLYTRYDYKAPYISSDDAFLAMFYNSDVMSKEFKKIKNELYKSFEEIKMKLKDFINILEREILLFKAEFSNIQKDHIFQSDKNFSELRAFCNASDEYFLKDFKELLFKSILELDLFFEKLNLKAFTNYENATKLSLAFFSRKINESRVLYELDSSEFVLFYPKKSEIYERVLNELNVYEFETLLINKPILTKIAKNFLEQSQNLIQEKNKFLDLKKAELQKRRAQILNVRESIKED
notes: Cj-DLP2, dynamin-like protein of Campylobacter jejuni, gene cj0412, 71.2 kDa; Monomer alone; Two copies stand in the 2:2 tetramer with Cj-DLP1; also called cj0412; CJ0412; source: E. coli BL21 (DE3), purified (amylose resin, TEV cleavage, gel filtration); not shown: MBP, N-terminal, cleaved

Legend:
Conditions in all cases: both partners purified
[1] = molecular target: B2; assay: SEC-MALS; the two proteins mixed; 100 μl at 1–2 mg/ml on Superdex 200 10/300 GL in TEN 7.5 (20 mM Tris pH 7.5, 1 mM EDTA, 1 mM sodium azide), 1 mM DTT
[2] = molecular target: B3; assay: as above
[3] = molecular target: B2; assay: crystal structure; Cj-DLP1/2 tetramer, apo (3.7 Å) and with GDP·AlF4¯ (3.9 Å), space group P2(1)2(1)2(1); sitting drop, 0.7–1.0 M succinate pH 7.0, 20 °C

B1: Cj-DLP2_(∆trunk-tip) (natural protein)
chain: MQINLLNDFIKAYENTYSVSFDDSFKGRIQELCKELNEPFMHASYALENELKELVFSLDKNVNIAIIGQFSSGKSSLLNLILGRDCLPTGVVPVTFKPTFLRYAKEYFLRVEFEDGSDIITNIEKLAFYTDQRNEVKQAKSLHIFAPIPLLEKITLVDTPGLNANENDTLTTLDELKNIHGAIWLSLIDNAGKKSEEDAIKANLELLGENSICVLNQKDKLSAEELDNVLNYAKSVFLKYFNELIAISCKEAKDEQSYEKSNFQSLLDFLTQLDTTVLKEKFVKRKILNLCEILEDENQLFVGIFDRLLNQFQSYEKHLLLAYENFLKEIEILNHQILEQLKSISERMSKEFKKIKNELYKSFEEIKMKLKDFINILEREILLFKAEFSNIQKDHIFQSDKNFSELRAFCNASDEYFLKDFKELLFKSILELDLFFEKLNLKAFTNYENATKLSRVLNELNVYEFETLLINKPILTKIAKNFLEQSQNLIQEKNKFLDLKKAELQKRRAQILNVRESIKED
notes: Cj-DLP2 of Campylobacter jejuni (cj0412) with amino acids 348-401 and 509-542 within the trunk tip removed; also called Cj-DLP2 with the trunk tip removed; source: E. coli BL21 (DE3), expressed and purified as for native; not shown: MBP, N-terminal, cleaved
B1: binds [1].

In the case of B2, the “stoichiometry N” value [2] is reported as 1 Cj-DLP1 per Cj-DLP2 (2:2 tetramer).

B3: binds [3].

B4: Cj-DLP1_(∆trunk) (natural protein)
chain: MKELFQKIWQNELQFLNFDAKFQDKSKLDTAECAIILSVNKDNYERYFLLKEFQELCKKIDLRVDIFSMQNAQICILNLFKSGFISKQDLLKALKILEKISKNTEIFDFILQEKVQSIDQKALFQNDFKELNTINLELQKLSFDENLKSRLQKTLEKFQNLEFNIAITGVMNAGKSSLLNALLKEDFLGVSNIPETANLTVLSYGKSEEAKIYFWDKKEWQNILESSHFNADLKEFIDKLDKSVNIEDFIKDKPLIQNIALCELKNFSSAKNKISALIKKIEIKSHLEFLKNNISIVDTPGLDDVVVQREIVTNEYLRESDFLIHLMNASQSLTQKDADFLVHCLLNSRLSKFLIVLTKADLLSKKDLEEVIVYTKESLKSRLVDLDENLVEKIDFLCVSAKMASDFYKGLASKESLQKSGMQEFENYLFNELYAGEKSKIALRAYKKELHLELKNILSEYEMQNRLIKLKNQDANILNSFEENLEKIEKLKQLEMGLLNAD
notes: Cj-DLP1 of Campylobacter jejuni (cj0411) with amino acids 470-695 (trunk) deleted; also called Cj-DLP1 with the trunk removed; source: E. coli BL21 (DE3), expressed and purified as for native
B4: binds [2].
